Measurements: paper PMC4970725

Columns and labels:
IL-18 (Homo sapiens) = IL-18 (Homo sapiens) (UniProt Q14116); conditions: cited from earlier work
[1] = biological target: IL-18 receptor on NK-92MI cells (human (endogenous in NK-92MI)) (UniProt Q13478)
Chain of IL-18 receptor on NK-92MI cells (human (endogenous in NK-92MI)) (Q13478 19-541, chain 1 of 2): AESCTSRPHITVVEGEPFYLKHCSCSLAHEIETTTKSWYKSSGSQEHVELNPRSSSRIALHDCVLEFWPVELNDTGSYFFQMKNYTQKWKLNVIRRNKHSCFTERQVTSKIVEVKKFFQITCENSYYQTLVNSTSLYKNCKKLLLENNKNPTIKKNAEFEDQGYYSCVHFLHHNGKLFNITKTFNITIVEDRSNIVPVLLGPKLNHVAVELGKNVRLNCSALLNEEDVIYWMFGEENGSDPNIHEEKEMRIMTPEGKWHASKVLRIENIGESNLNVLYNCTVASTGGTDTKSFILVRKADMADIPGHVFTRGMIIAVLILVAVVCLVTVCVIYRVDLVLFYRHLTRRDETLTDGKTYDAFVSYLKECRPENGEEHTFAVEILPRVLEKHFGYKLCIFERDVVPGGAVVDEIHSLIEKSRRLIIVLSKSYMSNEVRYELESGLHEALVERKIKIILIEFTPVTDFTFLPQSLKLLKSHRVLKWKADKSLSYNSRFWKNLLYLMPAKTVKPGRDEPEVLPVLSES
Chain of IL-18 receptor on NK-92MI cells (human (endogenous in NK-92MI)) (O95256 20-599, chain 2 of 2, further chain): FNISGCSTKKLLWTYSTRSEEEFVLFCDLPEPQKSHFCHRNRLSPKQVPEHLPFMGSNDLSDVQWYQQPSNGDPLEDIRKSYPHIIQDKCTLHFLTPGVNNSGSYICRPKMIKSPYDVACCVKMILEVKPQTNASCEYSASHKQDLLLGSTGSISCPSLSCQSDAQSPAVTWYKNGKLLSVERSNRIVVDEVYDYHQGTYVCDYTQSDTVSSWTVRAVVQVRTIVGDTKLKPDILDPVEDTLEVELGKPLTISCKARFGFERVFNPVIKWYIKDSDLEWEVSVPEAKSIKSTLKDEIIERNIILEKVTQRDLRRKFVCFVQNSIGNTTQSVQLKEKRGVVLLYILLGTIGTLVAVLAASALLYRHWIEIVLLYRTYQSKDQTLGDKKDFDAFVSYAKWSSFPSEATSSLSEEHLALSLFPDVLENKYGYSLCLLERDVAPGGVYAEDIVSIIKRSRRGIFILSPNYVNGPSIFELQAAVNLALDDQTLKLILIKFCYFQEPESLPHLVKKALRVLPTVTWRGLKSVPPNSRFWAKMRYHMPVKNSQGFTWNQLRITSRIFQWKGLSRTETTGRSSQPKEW

Chain of IL-18 (Homo sapiens) (Q14116 37-193): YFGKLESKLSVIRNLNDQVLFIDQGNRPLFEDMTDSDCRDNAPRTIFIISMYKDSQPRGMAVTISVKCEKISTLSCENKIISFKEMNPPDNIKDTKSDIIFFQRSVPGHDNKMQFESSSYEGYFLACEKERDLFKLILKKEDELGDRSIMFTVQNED
Chain of IL-18BP (O95998 31-194): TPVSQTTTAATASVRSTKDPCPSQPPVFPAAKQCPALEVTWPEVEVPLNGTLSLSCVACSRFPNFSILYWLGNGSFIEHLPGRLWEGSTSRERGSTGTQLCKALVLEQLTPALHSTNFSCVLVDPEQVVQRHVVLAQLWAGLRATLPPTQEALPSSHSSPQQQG

IFN-γ in the supernatant (ELISA) of NK-92MI cells stimulated with 0.5 ng/ml IL-12 and 12.5-200 ng mL^-1 IL-18; activity against wild-type IL-18 at 200 ng mL^-1 (times higher than wild-type IL-18) [1] | Substance | Kd (IL-18 (Homo sapiens)) [nM]
– | IL-18BP (from UniProt O95998) | 0.4
9.3 | recombinant mature human interleukin-18 E6K (ligand) | –
3.9 | recombinant mature human interleukin-18 T63A (ligand) | –
